In patent US20230203204A1 (published 2023) one finds EC50 data, which are given here for 1 molecule.

For the assay, the target named is T1, recombinant human RANKL-murine Fc fusion protein (Sino Biological Inc.) (human, UniProt O14788 136-317, limits assumed).
T1 construct: Bought; not shown: murine Fc
T1 sequence (looked up): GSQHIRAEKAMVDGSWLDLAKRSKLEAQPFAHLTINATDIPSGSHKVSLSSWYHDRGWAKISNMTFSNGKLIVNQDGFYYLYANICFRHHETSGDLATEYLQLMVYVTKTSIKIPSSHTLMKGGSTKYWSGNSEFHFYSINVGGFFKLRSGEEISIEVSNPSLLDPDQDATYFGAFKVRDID
Briefly: ELISA, human RANKL-murine Fc coated at 1 ug/mL, fusion protein titrated, anti-human IgG Fc-AP detection.

B1: OPG-Fc (Sino Biological Inc.) (Fc fusion, UniProt O00300 22-401, looked up)
chain: ETFPPKYLHYDEETSHQLLCDKCPPGTYLKQHCTAKWKTVCAPCPDHYYTDSWHTSDECLYCSPVCKELQYVKQECNRTHNRVCECKEGRYLEIEFCLKHRSCPPGFGVVQAGTPERNTVCKRCPDGFFSNETSSKAPCRKHTNCSVFGLLLTQKGNATHDNICSGNSESTQKCGIDVTLCEEAFFRFAVPTKFTPNWLSVLVDNLPGTKVNAESVERIKRQHSSQEQTFQLLKLWKHQNKDQDIVKKIIQDIDLCENSVQRHIGHANLTFEQLRSLMESLPGKKVGAEDIEKTIKACKPSDQILKLLSLWRIKNGDQDTLKGLMHALKHSKTYHFPKTVTQSLKKTIRFLHSFTMYKLYQKLFLEMIGNQVQSVKISCL
notes: not shown: Fc part of the bought product
Regarding B1, the EC50 is 0.04 µg/mL.
